B1: 003-109 (antibody, V domains shown)
VH: VQLVESGGGVVQPGRSLRLSCAASGFTFSSYGMHWVRQAPGKGLEWVAVIWYDGSNKYYADSVKGRFTISRDNSKNTLYLQMNSLRAEDTAVYYCARRHYDFDAFDIWGQGTMVTVSS
VL: QSALTQPASVSGSPGQSITISCTGTSSDVGGYNYVSWYQQHPGKAPKLMIYEVSNRPSGVSNRFSGSKSGNTASLTISGLQAEDEADYYCSSYTSSSTLYVFGTGTKVTVL
notes: also called 003-109-HC; 003-109-LC
B2: 007-168 (antibody, human IgG1, V domains shown)
VH: VQLVQSGAEAKKPGESLKISCKASGYSFTTFWIGWVRQMPGSGLEWIGIIYPGDSDTRYSPSFQGHVTISADRSTSTAYLQWSSLKASDTAMYYCARSAVFDYWGQGTLVTVSS
VL: EIVMTQSPATLSVSPGGRATLSCRASQSVSSNLAWYQQKPGQAPRLLIYGASTRATGIPVRFSGSGSGTEFTLTISSLQSEDFAVYYCQQYNNWPTSWTFGQGTKVEIK
B3: 007-169 (antibody, V domains shown)
VH: EVQLVQSGAEVKKPGESLKISCKGSGYSFTSYWIGWVRQMPGKGLEWMGIIYPGDSDTRYSPSFQGQVTISADKSISTAYLQWSSLKASDTAMYYCARDYGDYYFDYWGQGTLVTVSS
VL: QSALTQPRSVSGSPGQSVTISCTGTSSDVGGYNYVSWYQQHPGKAPKLMIYDVSKRPSGVPDRFSGSKSGNTASLTISGLQAEDEADYYCCSYAGSYTGVFGEGTKLTVL
notes: also called 007-169-HC; 007-169-LC
B4: 007-124 (antibody, human IgG1, V domains shown)
VH: EVQLVESGGGVGRPGGSLRLSCAASGFTFDDYGMSWVRQVPGKGLEWVSGINWSGADTGYADSVKGRFTISRDNAKNSLYLQMNSLRVEDTALYHCAREVGIAVTGYWFDPWGQGTLVTV
VL: SYELTQPPSVSVAPGQTARISCGGNHSESVHWYQQKPGQAPVLVVYDDSDRPSGIPERFSGSKSGNTATLTISRVEGGDEAEYYCQVWDSSSDHPGVVFGGGTKLTVL
notes: also called 007-124-HC; 007-124-LC
B5: 007-142 (antibody, V domains shown)
VH: B3 VH
VL: LTQPRSVSGSPGQSVTISCTGTSSDVGGYNYVSWYQQHPGKAPKLMIYDVSKRPSGVPDRFSGSKSGNTASLTISGLQAEDEADYYCCSYAGSYTGVFGGGTKLTVL
notes: also called 007-142-HC; 007-142-LC
B6: 008-218 (antibody, human IgG1, V domains shown)
VH: EVQLVESGGGLVQPGRSLRLSCAASGFTFDDYAMHWVRQVPGKGLEWVSGISWSSGSIGYADSVKGRFTISRDNAKNSLYLQMNSLRAEDTALYYCAKDRASSWYAYGMDVWGQGTLVTV
VL: NFMLTQPHSVSESPGKTVTISCTRSSGSIASNYVQWYQQRPGSSPTTVIYDDNQRPSGVPNRFSGSIDSSSNSASLIISGLKTEDEADYYCQSTRVFGGGTKLTVL
notes: also called 008-218-HC; 008-218-LC

target: T1, NR1 construct with mutation N368Q (human, UniProt Q05586 19-938); assay: immunofluorescence staining of HEK293 cells transfected with NR1 N368Q
T1 construct: whole, on cells; also called mutated NR1 construct; the mutant
Procedure: The cDNA of the human ionotropic glutamate N-methyl-D-aspartate 1 receptor (GRIN1) was kindly provided by Prof. Dr. Wanker (MDC, Berlin) and cloned into pBudCE4.1 (Life Technologies). NR1 DNA (1 μg) was mixed with 3 μg PEI and 100 μl 150 mM NaCl, vortexed and incubated for 10 min, and HEK293 cells were transiently transfected. Two days later, HEK293 cells on cover slips were fixed with methanol at −20° C. for 4 min. In addition, HEK293 cells transfected with a different NMDAR clone, leucine-rich glioma-inactivated 1 (LGI1), contactinassociated protein 2 (Caspr2), α-amino-3-hydroxy-5-methyl-4-isoxazolepropionic acid (AMPA) receptor, and gamma-aminobutyric acid b (GABAb) receptor were used (Autoimmune-Enzephalitis-Mosaik 1, Euroimmun, Lübeck, Germany). For staining with monoclonal antibodies and control antibodies, cells were washed in PBS, preincubated with 5% normal goat serum containing 2% bovine serum albumin and 0.1% Triton X-100, and incubated with antibodies starting at a 1:2 dilution of the cell culture supernatant overnight at 4° C. Secondary fluorescently labeled anti-human IgG antibodies were used for visualization. Sections were washed in PBS and coverslips mounted with Immu-Mount (ThermoScientific).
Point mutation N368Q was introduced into the NR1 construct using the Stratagene QuikChange Mutagenesis kit according to manufacturer's instructions and the mutant transiently transfected into HEK293 cells as described previously (Doss et al, 2014). Staining of HEK293 cells expressing natural and mutated NR1 construct was performed as described above.

| Binder | binding result |
| --- | --- |
| B1 | no binding |
| B2 | no binding |
| B3 | no binding |
| B4 | no binding |
| B5 | no binding |
| B6 | no binding |

Source: patent publication US20180244802A1 (DEUTSCHES ZENTRUM FUR NEURODEGENERATIVE ERKRANKUNGEN E V …, published 2018)
